According to PMC4306973 (Scientific Reports, 2015):
Values joined by “and” are separate entries in the source; they are usually repeats but may differ in a detail not shown here. Equal entries are not always repeated.

Molecular target: the molecule itself
Assay: SEC

B1: vanillin dehydrogenase from Corynebacterium glutamicum ATCC13032 (VDH_(ATCC13032)) (enzyme, UniProt Q8NMB0 1-484, looked up)
chain: MTATFAGIDATKHLIGGQWVEGNSDRISTNINPYDDSVIAESKQASIADVDAAYEAAKKAQAEWAATPAAERSAIIYRAAELLEEHREEIVEWLIKESGSTRSKANLEITLAGNITKESASFPGRVHGRISPSNTPGKENRVYRVAKGVVGVISPWNFPLNLSIRSVAPALAVGNAVVIKPASDTPVTGGVIPARIFEEAGVPAGVISTVAGAGSEIGDHFVTHAVPKLISFTGSTPVGRRVGELAINGGPMKTVALELGGNAPFVVLADADIDAAAQAAAVGAFLHQGQICMSINRVIVDAAVHDEFLEKFVEAVKNIPTGDPSAEGTLVGPVINDSQLSGLKEKIELAKKEGATVQVEGPIEGRLVHPHVFSDVTSDMEIAREEIFGPLISVLKADDEAHAAELANASDFGLSAAVWSKDIDRAAQFALQIDSGMVHINDLTVNDEPHVMFGGSKNSGLGRFNGDWAIEEFTTDRWIGIKRS
**Q.** B1 was tested. Which “stoichiometry N” value did it give?
**A.** 4 and 3 and 2
